Test results as given in paper PMC8809517, “Cofactor-independent RNA editing by a synthetic S-type PPR protein”.
Positions count from the first letter of the chain named.

What was measured:
Experiment in all cases: high-throughput RNA pulldown from lysate on Ni-NTA beads; HRP: 50 mM Tris pH 8, 150 mM NaCl, 1 mM beta-mercaptoethanol, 50 ug/ml BSA, 3 ug/ml yeast RNA, 0.5% heparin; ITC and FP: Tris pH 8, 200 mM KCl, 5% glycerol; MST: 50 mM Tris pH 8, 200 mM NaCl, 1 mM DTT, BSA, heparin, 0.05% Tween 20
Conditions in all cases: tags: N-terminal His-eGFP
[1] = target: T1, GFP-9S library array, motif 4 ND N98L;D124Q (synthetic construct, N98L;D124Q)
T1 chain: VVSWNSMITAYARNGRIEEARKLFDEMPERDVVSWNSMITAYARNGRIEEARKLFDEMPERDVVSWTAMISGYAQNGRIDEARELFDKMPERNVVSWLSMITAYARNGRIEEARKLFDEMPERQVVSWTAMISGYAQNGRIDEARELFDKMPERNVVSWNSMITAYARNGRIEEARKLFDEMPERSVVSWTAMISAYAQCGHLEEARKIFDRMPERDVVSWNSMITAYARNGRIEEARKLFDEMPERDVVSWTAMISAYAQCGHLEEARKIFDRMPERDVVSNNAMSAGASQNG

[2] = target: T2, GFP-9S library array, motif 4 ND N98V;D124T (synthetic construct, N98V;D124T)
T2 chain: T1 chain with L98V, Q124T

[3] = target: T3, GFP-9S library array, motif 4 ND N98Q;D124K (synthetic construct, N98Q;D124K)
T3 chain: T1 chain with L98Q, Q124K

[4] = target: T4, GFP-9S library array, motif 4 ND N98W;D124P (synthetic construct, N98W;D124P)
T4 chain: T1 chain with L98W, Q124P

[5] = target: T5, GFP-9S library array, motif 4 ND N98A;D124W (synthetic construct, N98A;D124W)
T5 chain: T1 chain with L98A, Q124W

Binder | Kd ([1]; label: 5' Cy5) | Kd ([2]; label: 5' Cy5) | Kd ([3]; label: 5' Cy5) | Kd ([4]; label: 5' Cy5) | Kd ([5]; label: 5' Cy5) | Kd ([1]; label: 5' IRDye 800CW) | Kd ([2]; label: 5' IRDye 800CW) | Kd ([3]; label: 5' IRDye 800CW) | Kd ([4]; label: 5' IRDye 800CW) | Kd ([5]; label: 5' IRDye 800CW)
AUUACACGUGA (ssRNA) [Cy5-rpoA] | 0.06 µM | 0.0893 µM | 0.0913 µM | 0.23 µM | 0.129 µM | – | – | – | – | –
AUUAGACGUGA (ssRNA) [Cy5-rpoA-G] | 0.0685 µM | 0.0867 µM | 0.109 µM | 0.215 µM | 0.104 µM | – | – | – | – | –
AUUAAACGUGA (ssRNA) [IR-rpoA-A] | – | – | – | – | – | 0.08 µM | 0.0363 µM | 0.257 µM | 0.579 µM | 0.138 µM
AUUAUACGUGA (ssRNA) [IR-rpoA-U] | – | – | – | – | – | 0.0589 µM | 0.0293 µM | 0.159 µM | 0.526 µM | 0.149 µM
